± gives the standard deviation of the averaged measurements.

A short description of this data set: total protein half-life in vivo (active degradation + dilution); higher = more stable protein.
The mark [1] stands for this setting: E. coli NCM3722 delta-clpP delta-lon delta-hslV, growth: N-lim chemostat, doubling time 6 h.
The mark [2] stands for this setting: E. coli NCM3722 delta-clpP, growth: N-lim chemostat, doubling time 6 h.
The mark [3] stands for this setting: E. coli NCM3722 delta-hslV, growth: N-lim chemostat, doubling time 6 h.
Where [4] appears, read: E. coli NCM3722 delta-lon, growth: N-lim chemostat, doubling time 6 h.
The mark [5] stands for this setting: E. coli NCM3722 delta-smpB, growth: N-lim chemostat, doubling time 6 h.
Setting [6] is: wild type E. coli NCM3722, growth: C-lim chemostat, doubling time 3 h.
Setting [7] is: wild type E. coli NCM3722, growth: C-lim chemostat, doubling time 12 h.
Setting [8] is: wild type E. coli NCM3722, growth: N-lim chemostat, doubling time 6 h.
Where [9] appears, read: wild type E. coli NCM3722, growth: N-lim chemostat, doubling time 12 h.
Setting [10] is: wild type E. coli NCM3722, growth: P-lim chemostat, doubling time 6 h.
Setting [11] is: wild type E. coli NCM3722, growth: P-lim chemostat, doubling time 12 h.
Setting [12] is: wild type E. coli NCM3722, growth: C-lim chemostat, doubling time 6 h.

As for “MNKYQAVIIGFGKAGKTLAVTLAKAGWRVALIEQSNAMYGGTCINIGCIPTKTLVHDAQQHTDFVRAIQRKNEVVNFLRNKNFHNLADMPNIDVIDGQAEFINNHSLRVHRPEGNLEIHGEKIFINTGAQTVVPPIPGITTTPGVYDSTGLLNLKELPGHLGILGGGYIGVEFASMFANFGSKVTILEAASLFLPREDRDIADNIATILRDQGVDIILNAHVERISHHENQVQVHSEHAQLAVDALLIASGRQPATASLHPENAGIAVNERGAIVVDKRLHTTADNIWAMGDVTGGLQFTYISLDDYRIVRDELLGEGKRSTDDRKNVPYSVFMTPPLSRVGMTEEQARESGADIQVVTLPVAAIPRARVMNDTRGVLKAIVDNKTQRMLGASLLCVDSHEMINIVKMVMDAGLPYSILRDQIFTHPSMSESLNDLFSLVK”, the “total protein half-life in vivo” value reads like this: under setting [1], 5.58 ± 0.12 h; under setting [2], 4.727 ± 0.039 h; under setting [3], 4.73 ± 0.26 h; under setting [4], 5.53 ± 0.24 h; under setting [5], 4.9 ± 0.99 h; under setting [6], 3.31 ± 0.05 h. For the same sequence, the “total protein half-life in vivo” value came out at 10.4 ± 1 h under setting [7]; 4.71 ± 0.29 h under setting [8]; 8.5 ± 0.62 h under setting [9]; 6 ± 0.4 h under setting [10]; 12 ± 1.2 h under setting [11].

With “MQENSPLLQLQNVGYLAGDAKILNNINFSLRAGEFKLITGPSGCGKSTLLKIVASLISPTSGTLLFEGEDVSTLKPEIYRQQVSYCAQTPTLFGDTVYDNLIFPWQIRNRQPDPAIFLDFLERFALPDSILTKNIAELSGGEKQRISLIRNLQFMPKVLLLDEITSALDESNKHNVNEMIHRYVREQNIAVLWVTHDKDEINHADKVITLQPHAGEMQEARYELA”, the “total protein half-life in vivo” value reads like this: under setting [1], 5.05 ± 0.21 h; under setting [2], 5 ± 0.8 h; under setting [3], 5.16 ± 0.41 h; under setting [4], 4.59 ± 0.41 h; under setting [5], 6.21 ± 1.8 h; under setting [6], 2.7 ± 0.38 h. The “total protein half-life in vivo” value turned out to be 6.58 ± 0.68 h under setting [12]; 9.76 h under setting [7]; 5.2 ± 0.14 h under setting [8]; 9.23 ± 0.8 h under setting [9]; 5.43 ± 0.2 h under setting [10]; 11.7 ± 1.6 h under setting [11].

With “MVKVYAPASSANMSVGFDVLGAAVTPVDGALLGDVVTVEAAETFSLNNLGRFADKLPSEPRENIVYQCWERFCQELGKQIPVAMTLEKNMPIGSGLGSSACSVVAALMAMNEHCGKPLNDTRLLALMGELEGRISGSIHYDNVAPCFLGGMQLMIEENDIISQQVPGFDEWLWVLAYPGIKVSTAEARAILPAQYRRQDCIAHGRHLAGFIHACYSRQPELAAKLMKDVIAEPYRERLLPGFRQARQAVAEIGAVASGISGSGPTLFALCDKPETAQRVADWLGKNYLQNQEGFVHICRLDTAGARVLEN”, the “total protein half-life in vivo” value runs as follows: under setting [1], 5.55 ± 0.88 h; under setting [2], 3.7 ± 0.34 h; under setting [3], 4.29 ± 0.69 h; under setting [4], 5.16 ± 0.65 h; under setting [5], 4.35 ± 0.11 h; under setting [6], 2.73 ± 0.61 h. The “total protein half-life in vivo” value by setting is: under setting [12], 5.63 ± 0.58 h; under setting [7], 8.58 ± 0.091 h; under setting [8], 4.31 ± 0.33 h; under setting [9], 6.8 ± 0.37 h; under setting [10], 6.04 ± 0.13 h; under setting [11], 12.6 ± 0.79 h.

As to “MADTKAKLTLNGDTAVELDVLKGTLGQDVIDIRTLGSKGVFTFDPGFTSTASCESKITFIDGDEGILLHRGFPIDQLATDSNYLEVCYILLNGEKPTQEQYDEFKTTVTRHTMIHEQITRLFHAFRRDSHPMAVMCGITGALAAFYHDSLDVNNPRHREIAAFRLLSKMPTMAAMCYKYSIGQPFVYPRNDLSYAGNFLNMMFSTPCEPYEVNPILERAMDRILILHADHEQNASTSTVRTAGSSGANPFACIAAGIASLWGPAHGGANEAALKMLEEISSVKHIPEFVRRAKDKNDSFRLMGFGHRVYKNYDPRATVMRETCHEVLKELGTKDDLLEVAMELENIALNDPYFIEKKLYPNVDFYSGIILKAMGIPSSMFTVIFAMARTVGWIAHWSEMHSDGMKIARPRQLYTGYEKRDFKSDIKR [P0ABH7]”, the “total protein half-life in vivo” value turned out to be 4.1 ± 0.75 h under setting [1]; 3.04 ± 0.12 h under setting [2]; 2.942 ± 0.0099 h under setting [3]; 3.4 ± 0.35 h under setting [4]; 3.08 ± 0.34 h under setting [5]; 3.18 ± 0.15 h under setting [6]. Also, the “total protein half-life in vivo” value is, setting by setting: under setting [12], 5.24 ± 0.23 h; under setting [7], 9.82 ± 1.7 h; under setting [8], 2.94 ± 0.063 h; under setting [9], 4.55 ± 0.57 h; under setting [10], 5.57 ± 0.27 h; under setting [11], 10.5 ± 0.35 h.

“MRKIKGLRWYMIALVTLGTVLGYLTRNTVAAAAPTLMEELNISTQQYSYIIAAYSAAYTVMQPVAGYVLDVLGTKIGYAMFAVLWAVFCGATALAGSWGGLAVARGAVGAAEAAMIPAGLKASSEWFPAKERSIAVGYFNVGSSIGAMIAPPLVVWAIVMHSWQMAFIISGALSFIWAMAWLIFYKHPRDQKHLTDEERDYIINGQEAQHQVSTAKKMSVGQILRNRQFWGIALPRFLAEPAWGTFNAWIPLFMFKVYGFNLKEIAMFAWMPMLFADLGCILGGYLPPLFQRWFGVNLIVSRKMVVTLGAVLMIGPGMIGLFTNPYVAIMLLCIGGFAHQALSGALITLSSDVFGRNEVATANGLTGMSAWLASTLFALVVGALADTIGFSPLFAVLAVFDLLGALVIWTVLQNKPAIEVAQETHNDPAPQH [P0AA78]”: the “total protein half-life in vivo” value worked out at 5.93 ± 0.18 h under setting [12] and 9.36 ± 0.82 h under setting [7].

In the case of “MHYQPKQDLLNDRIILVTGASDGIGREAAMTYARYGATVILLGRNEEKLRQVASHINEETGRQPQWFILDLLTCTSENCQQLAQRIAVNYPRLDGVLHNAGLLGDVCPMSEQNPQVWQDVMQVNVNATFMLTQALLPLLLKSDAGSLVFTSSSVGRQGRANWGAYAASKFATEGMMQVLADEYQQRLRVNCINPGGTRTAMRASAFPTEDPQKLKTPADIMPLYLWLMGDDSRRKTGMTFDAQPGRKPGISQ”, the “total protein half-life in vivo” value under setting [1] stood at 4.5 ± 0.46 h; the “total protein half-life in vivo” value under setting [2] was determined as 4.29 ± 0.28 h; the “total protein half-life in vivo” value under setting [3] stood at 3.87 ± 0.11 h; the “total protein half-life in vivo” value under setting [4] came out at 4.56 ± 0.44 h; the “total protein half-life in vivo” value under setting [5] was 3.62 ± 0.049 h; the “total protein half-life in vivo” value under setting [6] was found to be 2.99 ± 0.043 h. Besides, the “total protein half-life in vivo” value under setting [12] amounted to 5.77 ± 0.044 h; the “total protein half-life in vivo” value under setting [7] worked out at 9.39 ± 1.9 h; the “total protein half-life in vivo” value under setting [8] was 3.68 ± 0.25 h; the “total protein half-life in vivo” value under setting [9] amounted to 5.92 ± 0.058 h; the “total protein half-life in vivo” value under setting [10] is 6.22 ± 0.24 h; the “total protein half-life in vivo” value under setting [11] came out at 11.3 ± 0.24 h.

As to “MTTIVSVRRNGHVVIAGDGQATLGNTVMKGNVKKVRRLYNDKVIAGFAGGTADAFTLFELFERKLEMHQGHLVKAAVELAKDWRTDRMLRKLEALLAVADETASLIITGNGDVVQPENDLIAIGSGGPYAQAAARALLENTELSAREIAEKALDIAGDICIYTNHFHTIEELSYKA [P0A7B8]”, the “total protein half-life in vivo” value is, setting by setting: under setting [2], 5.42 ± 0.062 h; under setting [4], 6.49 ± 0.19 h; under setting [5], 5.3 ± 0.5 h; under setting [6], 2.72 ± 0.33 h; under setting [12], 6.23 ± 0.091 h; under setting [7], 10.2 ± 1.4 h. In addition, the “total protein half-life in vivo” value reads like this: under setting [8], 5.716 ± 0.023 h; under setting [9], 9.85 ± 1 h; under setting [10], 5.74 ± 0.23 h.
